# Results as given in US10925971B2, “Methods of treating PRLR positive breast cancer” (Regeneron Pharmaceuticals, Inc., priority 2016, dated 2021).
# System: TM00107 PDX tumors
# Assay: TM00107 patient derived xenograft (PDX) breast cancer model, tumor volume
# Format: in vivo, NOD SCID gamma (NSG) mice
# Procedure: Efficacy of H1H6958N2-DM1 was also assessed in a patient derived xenograft (PDX) model of breast cancer that may better represent the response in patients. NOD SCID gamma (NSG) mice bearing tumor fragments of the TM00107 PDX breast cancer tumor were sourced from The Jackson Laboratories. The TM00107 PDX model was derived from an ER+/−/PR−/HER2− metastatic breast adenocarcinoma. PRLR expression was confirmed by microarray analysis and immunohistochemistry on tumor sample slides provided by The Jackson Laboratory (data not shown). When tumors were an average volume of ˜400-600 mm^3 (21 days post implantation), mice were randomized into treatment groups (n=7 mice/group) and were administered H1H6958N2-DM1, control ADC, or vehicle control by intravenous injection once weekly for a total of 4 weeks. A separate treatment group was administered paclitaxel by intravenous injection every 4 days for a total of 4 doses.
molecule,measurement,setting,value
H1H6958N2-DM1: anti-PRLR antibody H1H6958N2 conjugated to the maytansinoid DM1 through an SMCC linker (conjugate) VH: QVQLVESGGGVVQPGRSLRLSCGASGFTFRNYGMQWVRQGPGKGLEWVTLISFDGNDKYYADSVKGRFTISRDNSKNTLFLQMNSLRTEDTAVYYCARGGDFDYWGQGTLVTVSS VL: DIQMTQSPSSLSASVGDRVTITCRASQDIRKDLGWYQQKPGKAPKRLIYAASSLHSGVPSRFSGSGSGTEFTLTISSLQPEDFATYYCLQHNSYPMYTFGQGTKLEIK,average tumor volume,"10 mg/kg once weekly, day 30, compared to vehicle",no significant difference in average tumor volume
same,average tumor volumes,"20 mg/kg once weekly, day 30, compared to 20 mg/kg control ADC",moderate but significant (p<0.01) decrease
